Test results published in the supplement of paper PMC11865577.

How the values were obtained:
Experiment in all cases: pull-down binding Z-score (relative to library population); higher = stronger binding
[1] = system: TO-3-N3 (biotin conjugate); conditions: RNA library: Library-2
Outline: (§1)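 The RNA library, end-labelled with Cy5 or Cy3, was heat-folded in phosphate/NaCl/KCl buffer, and 1 μg was incubated at 25 °C for 60 min with streptavidin beads carrying 100 pmol of biotin-conjugated small molecule. Hot SDS released the bound RNA, which was then hybridised to a DNA barcode microarray for 20 h at 55.5 °C. For scoring binding, signal from beads alone was subtracted, replicate barcoded probes were averaged after discarding the highest and lowest, and each value was turned into a Z-score from the library mean and standard deviation.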

[2] = system: TO-N3 (biotin conjugate); conditions: RNA library: Library-2
Outline: as §1

[3] = system: TO-3-N3-2 (biotin conjugate); conditions: RNA library: Library-2
Outline: as §1

[4] = system: TO-N3-2 (biotin conjugate); conditions: RNA library: Library-2
Outline: as §1

[5] = system: G-clamp-N3 (biotin conjugate); conditions: RNA library: Library-1 (pre-miRNA loops + repeats)
Outline: as §1

Row | Sequence | pull-down binding Z-score [1] | pull-down binding Z-score [2] | pull-down binding Z-score [3] | pull-down binding Z-score [4] | pull-down binding Z-score [5]
1 | GAGUUGCUGAGUGGGUUGAUCUC [hsa-mir-6764] | 0.17 | 0.122 | 0.061 | 0.652 | 0.494
2 | GAGUUUGGAAUUAAAAUCAAAACC [hsa-mir-181a-1] | -0.619 | -0.398 | -0.129 | 0.419 | -0.118
3 | GAGUUUGGAGUCGGUGGGUGGAGCCAAACUG [hsa-mir-6860] | 1.13 | 1.5 | 0.706 | 1.52 | 2.37
4 | GAGUUUGGGAUUUGAAAAAACC [hsa-mir-181a-2] | 0.253 | 0.394 | 0.292 | 0.793 | 0.843
5 | GAGUUUGGGCAGCUCAGGCAAACC [hsa-mir-181c] | -0.201 | 0.492 | 0.132 | 1.12 | 0.335
6 | GAUAUGCCAUUAUGUGGGUCAUGAGGUGGUGA [hsa-mir-6864] | 0.197 | 0.738 | 0.416 | 1.54 | 0.225
7 | GAUCCAGCCCAGGCUGGUUCCGCUGAC [hsa-mir-4522] | 1.15 | 1.23 | 0.351 | 1.51 | -0.211
8 | GAUCCGGGAACCCACAGCCCCGUUC [hsa-mir-6783] | 0.496 | 0.886 | 0.149 | 1.08 | 0.0468
9 | GAUCCUUUGUUCUGGAUC [hsa-mir-7856] | 0.118 | -0.266 | -0.283 | -0.63 | 0.436
10 | GAUGAAGAUUAAUCCCUAAUCCCCAACA [hsa-mir-6757] | -0.283 | 0.0739 | -0.0684 | 0.739 | -1.77
11 | GAUGCUGUAUAUCUGAAAGGUAC [hsa-mir-101-2] | -0.357 | -0.126 | -0.144 | 0.383 | -0.649
12 | GAUGCUGUCUAUUCUAAAGGUAC [hsa-mir-101-1] | -0.772 | -0.577 | -0.32 | 0.0666 | -0.819
13 | GAUGGAGGAAUCACAUGAAUUCAUC [hsa-mir-2115] | -0.415 | -0.627 | -0.362 | -0.351 | 0.704
14 | GAUGGAUUCUUAUGCUCCAUC [hsa-mir-136] | -0.326 | -0.631 | -0.443 | -0.9 | 0.328
15 | GAUGGGAUUAGAAACCAUAUGUCUCAUC [hsa-mir-3617] | 0.0209 | -0.25 | -0.165 | -0.438 | 0.264
16 | GAUGUAUCCAAGUACCCUGUGUUAUUUGGCAAUAAAUACAUC [hsa-mir-1298] | -0.204 | -1.27 | -0.361 | -0.35 | -1.2
17 | GAUGUUUCUGCCAGUUUAGCGUC [hsa-mir-505] | 0.0284 | 0.0886 | -0.0968 | 0.324 | -0.68
18 | GAUUAUUGUAAGCAGGAUCCAUUCAAUAAUC [hsa-mir-5188] | -0.19 | -0.366 | -0.383 | -0.703 | -0.228
19 | GAUUCGCUUUACUUAUGACGAAUC [hsa-mir-382] | -0.268 | -0.424 | -0.107 | -0.716 | -0.449

Row | Sequence | pull-down binding Z-score [1] | pull-down binding Z-score [2] | pull-down binding Z-score [3] | pull-down binding Z-score [4] | pull-down binding Z-score [5]
20 | GAUUCUGAUUCAGGGACCAAGAUUC [hsa-mir-544a] | 0.724 | 1.04 | 0.354 | 0.414 | 0.649
21 | GAUUCUUGAGGCUUGGAAGAGUAAGGAUC [hsa-mir-6866] | -0.0976 | 0.34 | 0.281 | 1.07 | -0.0295
22 | GAUUGAAGUUGAAUAGUGC [hsa-mir-3161] | -0.231 | -0.125 | 0.274 | 0.0514 | 0.429
23 | GAUUGCUAAUAGUACCAAUC [hsa-mir-34c] | 0.967 | 0.79 | -0.216 | -0.636 | -0.0934
24 | GAUUGGUCUGUGGUCCUCUC [hsa-mir-3615] | -0.569 | -0.565 | -0.217 | 0.498 | 0.109
25 | GAUUGGUUAGCCUAAGACUUGUUCUGAUCCAAUC [hsa-mir-5701-1_5701-2_5701-3] | 0.546 | 0.513 | 0.14 | 0.061 | -0.75
26 | GAUUUCUAUGAGAACAUC [hsa-mir-3675] | -0.704 | -1.02 | -0.57 | -0.95 | -0.499
27 | GAUUUUUUAGAUUCUAAAGAAAC [hsa-mir-1255a] | -0.837 | -1.02 | -0.365 | -1.27 | -1.12
28 | GCAAGGCUGUAGUGUGCACAGCCUUGA [hsa-mir-4452] | 0.945 | 0.936 | 0.127 | 0.583 | -0.383
29 | GCAAGGUUGUUGGUGAUAUGGCUUCCUCUC [hsa-mir-4685] | -0.179 | 0.0508 | 0.0915 | 0.538 | 0.872
30 | GCAAUCAGGACUGGGUCAUUC [hsa-mir-6873] | 0.38 | 0.572 | 0.166 | 0.291 | -0.628
31 | GCACCUGUUUGUGAC [hsa-mir-4718] | -0.491 | -0.457 | -0.276 | -0.201 | -1.21
32 | GCACUCUGUAGUUUGGGUACACAGUGC [hsa-mir-5011] | -0.741 | -0.77 | -0.259 | -0.478 | 1.49
33 | GCAGAAAUCACUCCAGGAGCAACUGA [hsa-mir-936] | -0.365 | 0.625 | 0.0585 | 0.712 | -0.3
34 | GCAGAGAAGACAGUGAGCUUGCCAGUUCUGGUUUCCAACACUUCCUUUCCUGCG [hsa-mir-3911] | 0.56 | 0.975 | 0.236 | 1.3 | -1.12
35 | GCAGAGCAGGACGCCGCUGCUGC [hsa-mir-8072] | 0.701 | 0.817 | 0.0817 | 1.65 | -0.0779
36 | GCAGAUAGUGGUCCUCUCCGUGCUACCGC [hsa-mir-106b] | -0.0735 | 0.316 | -0.0832 | 1.16 | -0.198
37 | GCAGAUUCUCUCUCUC [hsa-mir-4279] | 0.105 | 0.189 | -0.0368 | 0.316 | -1.39
38 | GCAGCACUGUGCUGGGGAUGUUGC [hsa-mir-1301] | 1.08 | 1.04 | 0.078 | 0.858 | 1.24
